This note sets out measurements from patent publication US20220119534A1 (DRAGONFLY THERAPEUTICS, published 2022).

Values joined by “and” are separate entries in the source; they are usually repeats but may differ in a detail not shown here. Equal entries are not always repeated.

Assay [1] concerns the target T1, Human CLEC12A-His (recombinant, K244 WT) (human, UniProt Q5QGZ9 65-265).
T1 construct: Made in house (Dragonfly Tx); also called hCLEC12A; hCLEC12A-His; not shown: His tag
T1 sequence: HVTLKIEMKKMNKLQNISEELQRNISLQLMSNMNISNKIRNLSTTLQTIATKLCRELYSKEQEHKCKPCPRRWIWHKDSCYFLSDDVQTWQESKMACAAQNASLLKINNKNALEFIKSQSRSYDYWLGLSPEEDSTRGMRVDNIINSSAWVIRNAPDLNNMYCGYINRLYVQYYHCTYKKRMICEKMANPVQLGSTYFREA
The assay can be described thus: SPR, two-state fit (ka1); after low pH hold. In general terms: Surface plasmon resonance follows binding to a sensor surface in real time, without labels.

In assay [2] the target is T2, Human CLEC12A expressed on cells (Ba/F3-hCLEC12A, PL21, HL60) (human, UniProt Q5QGZ9 1-265).
T2 sequence: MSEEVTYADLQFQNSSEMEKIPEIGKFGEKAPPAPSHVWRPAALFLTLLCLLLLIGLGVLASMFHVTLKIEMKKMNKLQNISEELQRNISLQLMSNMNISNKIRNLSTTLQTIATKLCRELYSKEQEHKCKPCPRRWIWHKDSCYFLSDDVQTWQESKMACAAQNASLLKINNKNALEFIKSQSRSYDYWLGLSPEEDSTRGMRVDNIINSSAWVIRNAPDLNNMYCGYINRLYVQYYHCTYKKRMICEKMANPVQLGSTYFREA
Nature of the assay: cell-based or functional assay.

The target in assay [3] is T1, Human CLEC12A-His (recombinant, K244 WT). Nature of the assay: SPR, two-state fit (kd1); control sample.
Protocol: (§1) Briefly, human Fc specific antibodies were covalently immobilized at a density ˜8000-10000 resonance units (RU) on carboxy methyl dextran matrix of a CM5 biosensor chip via amine-coupling chemistry to create an anti-hFc IgG chip. […] Association was monitored for 300 seconds and dissociation was monitored for 600 seconds. Surfaces were regenerated between cycles with three pulses of 10 mM glycine-HCl, pH 1.7 injected for 20 seconds at 100 μl/min. HBS-EP+ (1×) with 0.1 mg/ml BSA was used as running buffer throughout the experiment. Experiments were performed at physiological temperature of 37° C. To obtain kinetic rate constants and overall binding affinity, double-referenced data were fit to a two-state kinetic model using Biacore 8K Insight Evaluation software (Cytiva).
For assay [4] the target is unchanged. The assay can be described thus: SPR, two-state fit (kd1); after 4 wks 40C in HST pH 6.0.
Protocol: as §1
In assay [5] the target is T3, mFc-hNKG2D (human, UniProt P26718 73-216).
T3 construct: extracellular domain; Recombinant mFc-tagged NKG2D dimer, made in house; also called human NKG2D; not shown: mouse Fc tag
T3 sequence (looked up): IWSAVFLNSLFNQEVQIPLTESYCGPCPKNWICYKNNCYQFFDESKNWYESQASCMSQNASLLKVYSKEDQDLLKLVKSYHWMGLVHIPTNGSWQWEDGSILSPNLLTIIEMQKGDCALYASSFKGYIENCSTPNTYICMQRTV
Nature of the assay: SPR, 37 C, mFc-hNKG2D captured, kinetic fit; average.

For assay [6], the target named is T4, Human CLEC12A-His (human, UniProt Q5QGZ9 65-265).
T4 construct: Recombinant soluble protein made in house; also called hCLEC12A-His; hCLEC12A; not shown: His tag
T4 sequence: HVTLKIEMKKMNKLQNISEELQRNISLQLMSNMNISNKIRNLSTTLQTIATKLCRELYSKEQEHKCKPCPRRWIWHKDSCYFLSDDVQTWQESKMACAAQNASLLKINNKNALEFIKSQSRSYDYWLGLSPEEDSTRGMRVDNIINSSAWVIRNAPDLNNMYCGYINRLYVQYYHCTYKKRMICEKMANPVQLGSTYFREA
The assay can be described thus: SPR; taken as the sample after forced oxidation (0.02% H2O2, 24 h).

Assay [7] concerns the target T5, Human CD32a H131 (human, UniProt P12318 36-218, limits assumed, biotinylated).
T5 construct: Bought recombinant receptor; also called hFcγRIIa H131
T5 sequence (looked up): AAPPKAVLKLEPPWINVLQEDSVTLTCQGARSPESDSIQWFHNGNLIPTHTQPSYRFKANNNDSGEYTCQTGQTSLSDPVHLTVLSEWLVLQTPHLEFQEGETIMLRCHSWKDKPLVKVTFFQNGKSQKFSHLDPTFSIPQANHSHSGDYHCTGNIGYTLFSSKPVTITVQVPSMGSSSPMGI
The assay can be described thus: SPR, steady state fit.

In assay [8] the target is T6, Human CD32a R131 (human, UniProt P12318 36-218, limits assumed, biotinylated).
T6 construct: Bought recombinant receptor; also called hFcγRIIa R131
T6 sequence (looked up): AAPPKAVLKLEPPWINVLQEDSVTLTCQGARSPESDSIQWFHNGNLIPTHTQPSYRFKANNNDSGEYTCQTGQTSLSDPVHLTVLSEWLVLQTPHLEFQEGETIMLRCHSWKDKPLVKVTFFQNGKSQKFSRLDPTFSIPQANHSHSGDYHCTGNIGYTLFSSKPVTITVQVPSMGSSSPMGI
The assay can be described thus: SPR, steady state fit.

For assay [9], the target named is T7, recombinant human CD32b (human, UniProt P31994 46-217, limits assumed, biotinylated).
T7 construct: also called FcγRIIb
T7 sequence (looked up): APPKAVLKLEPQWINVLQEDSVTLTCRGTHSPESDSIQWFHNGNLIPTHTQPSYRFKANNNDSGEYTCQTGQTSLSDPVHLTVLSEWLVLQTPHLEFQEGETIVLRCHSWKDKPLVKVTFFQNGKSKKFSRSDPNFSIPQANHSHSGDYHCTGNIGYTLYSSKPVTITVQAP
Nature of the assay: SPR 25C, steady state.

Assay [10] concerns the target T8, recombinant human CD16a V158 (human, UniProt P08637 17-208, biotinylated).
T8 construct: also called FcγRIIIa V158; hCD16aV
Nature of the assay: SPR 25C, kinetic fit, average.

T8 sequence (P08637 17-208 F176V limits assumed): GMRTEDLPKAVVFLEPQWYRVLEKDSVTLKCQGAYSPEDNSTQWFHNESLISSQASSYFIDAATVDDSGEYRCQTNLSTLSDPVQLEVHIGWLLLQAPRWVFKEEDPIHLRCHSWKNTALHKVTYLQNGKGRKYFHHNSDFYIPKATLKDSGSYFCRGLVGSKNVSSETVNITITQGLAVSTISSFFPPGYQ

B1: AB0089 TriNKET (bispecific antibody, human IgG1, kappa)
chain: QLQLQESGPGLVKPSETLSLTCTVSGFSLTNYGLHWIRQPPGKCLEWIGVIWVGGATDYNPSLKSRVTISVDTSKNQFSLKLSSVQAADTAVYYCAKGDYGDTLDYWGQGTLVTVSSGGGGSGGGGSGGGGSGGGGSDIQMTQSPSSLSASVGDRVTITCHASQNINFWLSWYQQKPGKAPKLLIYEASNLHTGVPSRFSGSGSGTDFTLTISSLQPEDFATYYCQQSHSYPLTFGCGTKLEIKGSDKTHTCPPCPAPELLGGPSVFLFPPKPKDTLMISRTPEVTCVVVDVSHEDPEVKFNWYVDGVEVHNAKTKPREEQYNSTYRVVSVLTVLHQDWLNGKEYKCKVSNKALPAPIEKTISKAKGQPREPRVYTLPPCRDELTKNQVSLTCLVKGFYPSDIAVEWESNGQPENNYKTTPPVLVSDGSFTLYSKLTVDKSRWQQGNVFSCSVMHEALHNHYTQKSLSLSPG
heavy: EVQLVESGGGLVKPGGSLRLSCAASGFTFSSYSMNWVRQAPGKGLEWVSSISSSSSYIYYADSVKGRFTISRDNAKNSLYLQMNSLRAEDTAVYYCARGAPIGAAAGWFDPWGQGTLVTVSSASTKGPSVFPLAPSSKSTSGGTAALGCLVKDYFPEPVTVSWNSGALTSGVHTFPAVLQSSGLYSLSSVVTVPSSSLGTQTYICNVNHKPSNTKVDKKVEPKSCDKTHTCPPCPAPELLGGPSVFLFPPKPKDTLMISRTPEVTCVVVDVSHEDPEVKFNWYVDGVEVHNAKTKPREEQYNSTYRVVSVLTVLHQDWLNGKEYKCKVSNKALPAPIEKTISKAKGQPREPQVCTLPPSRDELTENQVSLTCLVKGFYPSDIAVEWESNGQPENNYKTTPPVLDSDGSFFLYSWLTVDKSRWQQGNVFSCSVMHEALHNHYTQKSLSLSPG
light: DIQMTQSPSSVSASVGDRVTITCRASQGISSWLAWYQQKPGKAPKLLIYAASSLQSGVPSRFSGSGSGTDFTLTISSLQPEDFATYYCQQGVSFPRTFGGGTKVEIKRTVAAPSVFIFPPSDEQLKSGTASVVCLLNNFYPREAKVQWKVDNALQSGNSQESVTEQDSKDSTYSLSSTLTLSKADYEKHKVYACEVTHQGLSSPVTKSFNRGEC
notes: F3' format heterodimer of three chains; human IgG1 Fc with EW-RVT and Y349C/S354C mutations; also called AB0089 Lot AB0089-002; CLEC12A TriNKET AB0089
Take B1: the kon in [1] came to 1.11e+07 M⁻¹ s⁻¹. For the same molecule, in assay [2], the “EC50, NK cell induction of IFNγ and CD107a in co-culture with PL21 cells (mean of three donors)” value was 0.08 nM. Also, the koff in assay [3] is 0.0435 s⁻¹; in [4] it was 0.0424 s⁻¹.

B2: AB0192 TriNKET (other)
chain: EVQLVESGGGVVQPGGSLRLSCAASGFTFNAFGMHWVRQAPGKCLEWVAFISSGSTSIYYANTVKGRFTISRDNSKNTLYLQMNSLRAEDTAVYYCARDGYPTGGAMDYWGQGTSVTVSSGGGGSGGGGSGGGGSGGGGSDIQMTQSPSSLSASVGDRVTITCKASQDIYNYLSWFQQKPGKAPKPLIYRANILVSGVPSRFSGSGSGQDYTFTISSLQPEDIATYYCLQFDAFPFTFGCGTKLEIKGSDKTHTCPPCPAPELLGGPSVFLFPPKPKDTLMISRTPEVTCVVVDVSHEDPEVKFNWYVDGVEVHNAKTKPREEQYNSTYRVVSVLTVLHQDWLNGKEYKCKVSNKALPAPIEKTISKAKGQPREPRVYTLPPCRDELTKNQVSLTCLVKGFYPSDIAVEWESNGQPENNYKTTPPVLVSDGSFTLYSKLTVDKSRWQQGNVFSCSVMHEALHNHYTQKSLSLSPG
heavy: EVQLVESGGGLVKPGGSLRLSCAASGFTFSSYSMNWVRQAPGKGLEWVSSISSSSSYIYYADSVKGRFTISRDNAKNSLYLQMNSLRAEDTAVYYCARGAPIGAAAGWFDPWGQGTLVTVSSASTKGPSVFPLAPSSKSTSGGTAALGCLVKDYFPEPVTVSWNSGALTSGVHTFPAVLQSSGLYSLSSVVTVPSSSLGTQTYICNVNHKPSNTKVDKKVEPKSCDKTHTCPPCPAPELLGGPSVFLFPPKPKDTLMISRTPEVTCVVVDVSHEDPEVKFNWYVDGVEVHNAKTKPREEQYNSTYRVVSVLTVLHQDWLNGKEYKCKVSNKALPAPIEKTISKAKGQPREPQVCTLPPSRDELTENQVSLTCLVKGFYPSDIAVEWESNGQPENNYKTTPPVLDSDGSFFLYSWLTVDKSRWQQGNVFSCSVMHEALHNHYTQKSLSLSPG
light: DIQMTQSPSSVSASVGDRVTITCRASQGISSWLAWYQQKPGKAPKLLIYAASSLQSGVPSRFSGSGSGTDFTLTISSLQPEDFATYYCQQGVSFPRTFGGGTKVEIKRTVAAPSVFIFPPSDEQLKSGTASVVCLLNNFYPREAKVQWKVDNALQSGNSQESVTEQDSKDSTYSLSSTLTLSKADYEKHKVYACEVTHQGLSSPVTKSFNRGEC
notes: the condition stands under assay; also called AB0192 Lot AB0192-005
For B2, the Kd is 779 nM in assay [5]; 1.71 nM in assay [6]; 1040 nM and 921 nM and 1070 nM and 1020 nM in assay [7]; 1380 nM and 1290 nM and 1800 nM and 1130 nM in [8]. In assay [6], this molecule yielded a koff of 0.00132 s⁻¹. This molecule also showed a kon in [6] of 775000 M⁻¹ s⁻¹.

B3: F3'-1602 TriNKET (other)
chain: QLQLQESGPGLVKPSETLSLTCTVSGFSLTNYGLHWIRQPPGKCLEWIGVIWSGGKTDYNPSLKSRVTISKDTSKNQFSLKLSSVQAADTAVYYCAKYDYDDSLDYWGQGTLVTVSSGGGGSGGGGSGGGGSGGGGSDIQMTQSPSSLSASVGDRVTITCHASQNINFWLSWYQQKPGKAPKLLIYEASNLHTGVPSRFSGSGSGTRFTLTISSLQPEDIATYYCQQSHSYPLTFGCGTKLEIKGSDKTHTCPPCPAPELLGGPSVFLFPPKPKDTLMISRTPEVTCVVVDVSHEDPEVKFNWYVDGVEVHNAKTKPREEQYNSTYRVVSVLTVLHQDWLNGKEYKCKVSNKALPAPIEKTISKAKGQPREPRVYTLPPCRDELTKNQVSLTCLVKGFYPSDIAVEWESNGQPENNYKTTPPVLVSDGSFTLYSKLTVDKSRWQQGNVFSCSVMHEALHNHYTQKSLSLSPG
heavy: EVQLVESGGGLVKPGGSLRLSCAASGFTFSSYSMNWVRQAPGKGLEWVSSISSSSSYIYYADSVKGRFTISRDNAKNSLYLQMNSLRAEDTAVYYCARGAPIGAAAGWFDPWGQGTLVTVSSASTKGPSVFPLAPSSKSTSGGTAALGCLVKDYFPEPVTVSWNSGALTSGVHTFPAVLQSSGLYSLSSVVTVPSSSLGTQTYICNVNHKPSNTKVDKKVEPKSCDKTHTCPPCPAPELLGGPSVFLFPPKPKDTLMISRTPEVTCVVVDVSHEDPEVKFNWYVDGVEVHNAKTKPREEQYNSTYRVVSVLTVLHQDWLNGKEYKCKVSNKALPAPIEKTISKAKGQPREPQVCTLPPSRDELTENQVSLTCLVKGFYPSDIAVEWESNGQPENNYKTTPPVLDSDGSFFLYSWLTVDKSRWQQGNVFSCSVMHEALHNHYTQKSLSLSPG
light: DIQMTQSPSSVSASVGDRVTITCRASQGISSWLAWYQQKPGKAPKLLIYAASSLQSGVPSRFSGSGSGTDFTLTISSLQPEDFATYYCQQGVSFPRTFGGGTKVEIKRTVAAPSVFIFPPSDEQLKSGTASVVCLLNNFYPREAKVQWKVDNALQSGNSQESVTEQDSKDSTYSLSSTLTLSKADYEKHKVYACEVTHQGLSSPVTKSFNRGEC
notes: CLEC12A scFv-Fc, NKG2D A49MI Fab-Fc, human IgG1 Fc; also called AB0237
As for B3, the Kd in assay [9] was 7200 nM and 6100 nM and 6900 nM. Besides, in [10], the Kd was 238 nM, the koff amounted to 0.022 s⁻¹ and the kon was 94000 M⁻¹ s⁻¹.

By kon is commonly meant the rate constant with which the complex forms. One may read the koff as the first-order rate constant of dissociation. What is called Kd is the concentration at which binding is half-saturated.
